Reference: the DeepSol protein solubility set

Test: soluble on expression in E. coli; label from the status in PepcDB or PDB records

**Q.** Which “soluble on expression in E. coli” value does the source give for “NPTEQLLTRFNQAAQGDTGLVDTVHDELSQLVQKQGATPVTLVYLGSSETLQGRDAFMPWNKMKFTERGLATIQKGLDLMANQPMPIQEQQRLQGLPEYQ” here?
**A.** not soluble

**Q.** For “MDFVHCNKCFNRKPPDGFFISSCFHIFCTKCAKADLAVCLICKKNVRLVRLDGNISSGIKIYFADPIKMVADSLAKIQKKIDFQQSTRDHLVKYLTKEKEKKRQMEVYFRTKGQEFDSQRKKLAEATAWIQMAEKKLQASEEERVKAEREIEECQAKLKSMTNLMSADTLGMNSQTPFPFSLAESQETAPSLVESSANSTFNMVSPLVSSPASSPNSINYNSFFENGSRTRPESLNEEAMFNTMSSGQSANANTSESSAFSVAFNNIFTPSRNNMGDSSMINKTTANQTIMDKTSMSLENWRQNRANSFGVHDISKRDSSLPTGGGSAIRVHHFKQNSRITPIAQNRRSAAGFDRQQIQEMRRISSQPGYLAQRKPINGRSFIGPAD”, which “soluble on expression in E. coli” value is on record?
**A.** not soluble

**Q.** With “MSLKYQLRFGGEGGQGVITAGEILAEAAIKEGRQAFKASTYTSQVRGGPTKVDIIIDDKEILFPYAVEGEVDFMLSTADKGYKGFRGGVKEGGIIVVEPNLVHPESEDYKKWQIFEIPIITIAKDEVGNVATQSVVALAIAAYMSKCIDLDVLKETMLHMVPAKTRDANAKAFDLGVKYATQAKPHEGHHHHHH” as the sequence, how does the “soluble on expression in E. coli” value read?
**A.** soluble

**Q.** For “MNNETSGKETASAPLCSPKLPVEKVQRIAKNDPEYMDTSDDAFVATAFATEFFVQVLTHESLHRQQQQQQQQVPPLPDELTLSYDDISAAIVHSSDGHLQFLNDVIPTTKNLRLLVEENRVRYTTSVMPPNEVYSAYVVNDTAPKPNIVEIDLDNDEDDDEDVTDQE”, which “soluble on expression in E. coli” value is on record?
**A.** not soluble

**Q.** Which “soluble on expression in E. coli” value does the source give for “MNSQTTKDIPCFRSYLPDALRLRFEDKLTIRAIAQRLGLSHSTIHTLFQRFLASGIAWPLPDSVSFAQLDAILYANRKKELTEPQIREGSWRKERRTSYSREFKVRLAKQALQPGAVVARIAREHDINDNLLFKWKSQYEDGLLSDDDIQECMPVPVALTDTPEPTRPVTNPFWRNKHDERPEGAPGNVPRCELHLKSGVVKLFDPLTPELLRALIREMKGGIRLEHHHHHH” here?
**A.** soluble

**Q.** With “MVKDCSYSILLPTYNERENLPYILYFIEEVFESMGERYEVIVVDDNSPDGTLEVAKKLQQVFGSDKVVLAPRAGKLGLGSAYSHGLQFAKGNFIIIMDADLSHHPKYIADFVRKQREGSFDVVTGTRYRGEGGVFGWNWRRKLTSVGANLLAQLLLNPGVSDLTGSFRLYRRQAFEQLIHRTRSKGYVFQMEIIVLAKKLGLRVGEVPIVFIDRLYGESKLGGREVIQYLSGLLCLMFQK” as the sequence, how does the “soluble on expression in E. coli” value read?
**A.** soluble

**Q.** With “MSDITLREAQKSVDQWIKTLGIRYFNELTNMAILTEEVGEVARIIARRYGEQSEKESDKSKDLADEMADVLWVLLCLANQTGVDLTTAFHKNIEKKTVRDKERHQQNTKLHNNGSK” as the sequence, how does the “soluble on expression in E. coli” value read?
**A.** soluble

**Q.** For “MGSDKIHHHHHHVSKPHYKTTNWKQYNQALINRGSLTFWIDEDAIAKWKAKVEQPKKGRPRVFSDLAITTALMVKRIFSMPLRALQGFINSVFKLGDIPLSCPHYTCISKRAKTVNIAFKTKTRGAIKHLAIDSTGLKVYGEGEWKVKKHGTDGKRRVWRKLHIAVDTHSHEIIAAELSLSGVTDAEVMPNLLKQTHRKIRNISGDGAYDTKACHEAVRRKRALVLIPPREGAALWEQGHPRNLAVSWQQLHGSNKQWKKRYGYHRRSISETAMYRIKQLLGGTLSMRNYNAQVGETYAMIRALNKLTGLGMPETHYVA”, which “soluble on expression in E. coli” value is on record?
**A.** not soluble

**Q.** Which “soluble on expression in E. coli” value does the source give for “MAEIPLFPLSNALFPAGVLRLRVFEIRYLDMVRRCIADGSEFGVVVLEQGTEVRRPDGREVLARAGTMARIDHWEAPMPALLELACTGTGRFRLHACTQGKYGLWTGQAEPVPDDAPLEVPPELARSASALGRLIARLQREGVPPHIMPMAAPFRLDDCGWVADRWAEMLSLPPADKARLLLLPPLDRLREIDAVLAADGHALEHHHHHH” here?
**A.** soluble

**Q.** Which “soluble on expression in E. coli” value does the source give for “MRKMMPMNPKQLKKLMKQLDMRQLEGVKEVIIKMEDREIIIKEPIVTVIKAMGEKMYQIAGGSEEEKAIINISEEDIKLVMEQAGVDYETAKKALEETGGDLAEAILRLTDSGVE” here?
**A.** soluble

**Q.** With “MAGHSKWANIKHRKAAQDAQRGKIFTKLIRELVTAAKIGGGDVSANPRLRAAVDKALSNNMTRDTINRAIDRGVGGGDDTNMETKIYEGYGPGGTAVMVECLSDNANRTISQVRPSFTKCGGNLGTEGSVGYLFSKKGLILIAEADEDALTEAAIEAGADDIQPQDDGSFEIYTAWEDLGSVRDGIEAAGFKVQEAEVTMIPSTTVDLDIETAPKLLRLIDMLEDCDDVQNVYHNGEICDEVASQL” as the sequence, how does the “soluble on expression in E. coli” value read?
**A.** not soluble

**Q.** With “MGSDKIHHHHHHMPKQTFFNLKDEKRQRIIDAAEREFSQCPLYESSINNIIKDAKIPRGSFYQYFDDLSDLYGYYFSLILEDIQENLIDSVQEADGDIFSAVKKYAGEYMKEIISGNHRDFYRNFFLGANISKRSKDGKHPGFDVYHSDRMKELRVNLKKEVNWKLLKVTNEKDQNMIQQLIMMIFFHSFANYFVHSNNTDSDPAEVQKEIERNLNWLEFGARRTEDK” as the sequence, how does the “soluble on expression in E. coli” value read?
**A.** not soluble

**Q.** For “MSLCTPLTSYSGFQAIEAKPAEMKVGEDSKSTLMEKLGSPSAVSTFDNNTWYYISQTTDRVAFYMPRVIKRDVVAIKFNPADEKVASVDTYTLQDGKVIAYNGRETPTRGREMTILEQLLGNVGRGGMLPQDDTAPGQRPGDREGHHHHHH”, which “soluble on expression in E. coli” value is on record?
**A.** soluble

**Q.** For “MANLQNMSSSPKHTNGSSERSENCGELCVVCGDKASGRHYGAVSCEGCKGFFKRSIRKRIGYVCRSQKDCPVTKFHRNRCQYCRLRKCLSMGMRSESVQAERRPVNNSSMLCNNDNNQQNTTPEHLSPNLLLSLVKLEHETKLGGLEALIKPGSPVMLQNTQDYMDVKRESIGEDEMTVIGLVPPSASPTSSGVGSSSSISDDSGPIYTSERARFEISVPLNTQNPRNHQYISEITTRLLFLTVHFVKDSRVSLRTSTMEGLLKSKWCDLYILALMQTADKIKLGQLLDNLTNQMAMGMECGQYSAEKFEKISEQMQRLLQLSQLFASRELTAVEYAYLKMISFTAQDLPSSMASPETRSVNQMASQELFEYVSSSKSTQNHMSNEHINVDDSTSEDNDTHVTSQQSSVNIAAERFSRILQLLPCLRWFDPATIVEIFFSGLIGPMSIETIIPFVLQMNLMSFFDQKMELGSGGASDTLSTSSLSEMMNNQ”, which “soluble on expression in E. coli” value is on record?
**A.** not soluble

**Q.** For “MNILLLDGGKAFGHSHGGLNRTLHKKAKEVLTALGHNVQETVIDAGYDVEAEIEKFVWMDAVIWQMPGWWMHEPWTVKKYIDEVLTAGHGKLYQSDGRHSVNPTEGYGTGGLLQGKKHMISLTWNAPIEAFTREGDFFEGKGVDVLYMHFHKANEFLGMTRLPTFLCNDVVKNPQVEKYLADYQAHLEKVFG”, which “soluble on expression in E. coli” value is on record?
**A.** not soluble

**Q.** Which “soluble on expression in E. coli” value does the source give for “MCIAIPGKMTAIVDENTATIDMGGICRDVNMALMGGAEESMIGKHFLVHVGYAISEISEEESEETMRLLKIMAGLEEIDSFE” here?
**A.** soluble

**Q.** Which “soluble on expression in E. coli” value does the source give for “MKPKTRLYYAERLEPVLAWLAARPDADADLHRLAELACLSPYYFHRVYRALLGETVHATVQRMRLARASVALAQGKGSLRQVADRAGYASEAAFSRAFSAQYGLPPGRYRAKRSSPFNPEELRMYPLTMEDFPGLSLAILAHQGDYQEIGNTFDRLALLAAIQDLVRDGMQPPPRYIGVYYDDPAQVARDALRSRAGVSLPPGTAAPAPFEPLDIPAMRCAVLEYTGPYSEIEAPYNWLFSQWLPASGQEPGDFPMFEEYLNDPKTTPAAQLKTRIYLPLA” here?
**A.** not soluble

**Q.** Which “soluble on expression in E. coli” value does the source give for “MNRLPTCLLAATLFLGSASLYAEDPACARVRLADPGWSDIAVTNATAAFLLESLGYQVKIDTLSVPIIYGGLRDGQVDAFLGGWMPAHQDYHDKFVASGQVERLGRNLDGTRFTLAVPRYVWDAGVHRFEDLAAQGQRFNRKLYGIGSGAPANQSIQKMIDANQFGLGDWKLVESSEQAMLAELGRAEKRQRWLVFLGWTPHPMNIRHDLRYLEGGEQYFGDRGQVYTLARKGYAAQCPNPARLLANLRFDLDMENRLMSDALEGTATPASATRAWLKANPRVLEAWLQGVTSRDGGDALAAVRGQP” here?
**A.** not soluble

**Q.** With “HQWQADEEAVRSATCSFSVKYLGCVEVFESRGMQVCEEALKVLRQSRRRPVRGLLHVSGDGLRVVDDETKGLIVDQTIEKVSFCAPDRNHERGFSYICRDGTTRRWMCHGFLACKDSGERLSHAVGCAFAVCLER” as the sequence, how does the “soluble on expression in E. coli” value read?
**A.** soluble

**Q.** With “MASSSATLSLCSTFSAHCNVNSRRSSTILCSLSKPSLNLAKPLTGFLSPSTASTSRTAFTVAPKFAESVVEAEPETTDIEAVVVSDVSEVTEEKAKREEIFAVIMVGGRQYIVFPGRYLYTQRLKDANVDDQIVLNKVLLVGTKTHTYIGKPVVTNATVHAVVESQGLNDKVVVFKYKPKKKYRRNIGHRQPNTRIRITGITGYEEYPASPNVAVGEVNLLEHHHHHH” as the sequence, how does the “soluble on expression in E. coli” value read?
**A.** not soluble

**Q.** Which “soluble on expression in E. coli” value does the source give for “DVTGLPTGFRDLDRITTGLHPDQLIILAARPAVGKTAFVLNIAQNVGTKQNRPVAIFSLEMGAESLVDRMLAAEGMVDSHSLRTGQLTDQDWNNVTIAQGALADAPIYIDDTPGIKITEIRARSRKLSQEVDDGLGLIVIDYLQLISGTRPENRQQEVSEISRQLKILAKELKVPVIALSQLSRGVEQRQDKRPVLSDI” here?
**A.** not soluble

**Q.** With “KDDKVASATDVQFETPLKIVEYPDPILRAKNKRIDIFDENLKNLVDAMFDVMYKTDGIGLSAPQVGLNVQLMVFNPAGEPGEGKEIVLVNPKIKKYSDKLVPFDEGCLSFPGIYAEVVRPQSVKIDARDITGERFSISLSRLPARIFQHEYDHLEGVLFFDRMTDQVLDSIREELEALEKKYEEKTGLPSPER” as the sequence, how does the “soluble on expression in E. coli” value read?
**A.** soluble

**Q.** With “MGSDKIHHHHHHMDFMTALDIGASALSAERTSMNITSMNLANAKTTRTIGGGPYRRKAVVMAATEVDDPFSKHMQSALDRELRGVRVQHIVRDNRPFRQVYEPGHPDADANGYVKYPDINVVEEMANLMTSQRGYQASVSTIEAVKSMYTKALEIGRS” as the sequence, how does the “soluble on expression in E. coli” value read?
**A.** not soluble

**Q.** For “MQDIPQETLSETTKAEQSAKVDLWEFDLTAIGGERFFFCNEPNEKGEPLTWQGRQYEPYPIQVQDFEMNGKGASPRPNLVVANLFGLVTGMAEDLQSLVGASVVRHQVYSKFLDAVNFSNGNPDADPEQEAVARYNVEQLSELDSSTATIILASPAETDGSVVPGRTMLADSCPWDYRDENCGYDGPPVADEFDKPTSDPKKDKCSHCMKGCEMRNNLVNAGFFASINKLS”, which “soluble on expression in E. coli” value is on record?
**A.** not soluble

**Q.** With “MTAYGFIIPVFNHPHYLDQLVETLSRYQLPMILVNDGSNEECSTKLRVLDQSYTQVHLVEHAYNQGKGQAVITGLHYADQLGLSHALQIDCDGQHQWADVEQFLQLSQQYPEKVIIGQPIFDASIPKKRLYGRYLTHVWVWINSLSFEIKDSMCGFRVYPLGPTLKVIKQAKFQPRMGFDSEILVRLKWENLAFINVPTAVIYPEHGILEHHHHHH” as the sequence, how does the “soluble on expression in E. coli” value read?
**A.** not soluble

**Q.** Which “soluble on expression in E. coli” value does the source give for “MVEKEIDYLCSQYGLKPTNLSKFTLKLNFPDPDLKYGFSGEDNSLYLPLYHELNVSSSLPGEMFCMVYIQLILDPDKVNSEYLADFFNNPLGLKIRKGWEARGFVLRPETRNSEEVQESQQTSALNNPALLSGKSGFSGISYPVTGETSSENGDSIYSICQGSDGMTYVLPDSASPVPEILSFPDLDLESLMHSKLYLPDLQVQLEILKIKALTKELISQLNIFECRLSTYPKSMSHIRRKLELIREAVKLANDSDYILELIRRGESKRLEFKSTLRMNLMTGKPDWNIQHAVLKTIVAYLNTDGGILLVGVSNDGEILGIKNDGFPNEDRFLLHFKQLIKQHIGLNYSPMIEYTLVPVNGKEVLEIACKKSDEAVFLKTDKNDEEFYIRTGPSSERLTGSKLIEYVNRRYNGKSDAAALEHHHHHH” here?
**A.** soluble
